Entries after “also recorded” stand apart in the source; their conditions may differ.
Key:
native PAR4 peptide = target: T1, native PAR4 peptide (Homo sapiens, UniProt Q96RI0); assay: ELISA screening of hybridoma supernatants, native vs KLH-linked PAR4 peptide; assay type: binding; details: first screening; second sub-clone
T1 construct: host or cells: synthetic peptide
Experimental: (§1) 96-well ELISA plates were coated with 50 μl of antigen diluted to a concentration of 4 μg/ml in coating buffer (0.1M Sodium Hydrogen Carbonate (NaHCO3) (Merck, #1.06329.0500)). Plates were incubated overnight at 4° C.
(§2) Wells were then washed with an automated plate washer (300 μl 1×PBS, 3 times). The wells were blocked with 200 μl of blocking buffer (3% BSA/1×PBS (BSA: (Sigma, #1001647742)) for 1 hour at room temperature followed by washing as above.
(§3) 50 μl of undiluted hybridoma cell culture supernatant was added into appropriate wells and incubated at room temperature for 1 hour followed by washing as above. […] Wells were washed as above. A set of substrate tablets (1×silver, 1×gold) into 20 ml of ddH20 by shaking vigorously on the thermomixer for 6 mins at room temperature. 50 μl of substrate ([…]™ p-Nitrophenyl phosphate Tablets (Sigma-Aldrich, N2770-50SET)) was added into each well and incubated for 20-25 mins at room temperature. 50 μl of STOP solution (2M Sodium Hydroxide, Solid (NaOH) (Merck, Cas #1310-73-2)) was added into each well to stop the reaction. Absorbance was read at 405 nm immediately after adding STOP solution with the ELISA reader, using the ‘RdrOle4’ software.

[1] = test system: PAR4 peptide vs PAR1, PAR2 and PAR3 peptides; assay: ELISA specificity screening, PAR4 peptide vs PAR1, 2 or 3 peptide; assay type: binding, human; details: hybridoma supernatant
Experimental: as §1, §2
as §3, with “50 μl of STOP solution (2M Sodium Hydroxide, Solid (NaOH) (Merck, Cas #1310-73-2)) was added into each well to stop the reaction.” left out
Hybridoma supernatants were initially screened for binding to the immunising PAR4 peptide sequence ([…]-KLH (SEQ ID NO: 4)) by antigen microarray, with binding determined by fluorescence intensity signal over background (signal from medium alone). […]

hPAR4 peptide = target: T2, hPAR4 peptide (Homo sapiens, UniProt Q96RI0); assay: ELISA of purified mAbs on hPAR4 peptide; assay type: binding; details: dilutions of purified mAbs
T2 construct: host or cells: synthetic peptide
Experimental: (§4) The kinetics of the binding interaction between the mAbs and hPAR4 was measured using Surface Plasmon Resonance (SPR; Biacore) by two different methods: 1. Anti-mouse Fc mAb capture method and 2. Streptavidin (SA) chip to capture biotinylated peptide. The ka(on) rate and kd(off) rates and KD were measured and fitted to a Langmuir model using the Biacore evaluation software.
The experiment was completed with purified mAbs diluted in PBS instead of hybridoma supernatants.
The reactivity of seven purified anti-hPAR4 mAbs was analysed by ELISA (see Table 4).

[2] = target: T3, hPAR4-biotinylated peptide (Homo sapiens, UniProt Q96RI0); assay: SA chip biotin peptide SPR (Biacore, streptavidin capture); assay type: binding
T3 construct: host or cells: synthetic peptide
Experimental: Biacore analysis was performed on a Biacore T200 using two different methods either an anti-mouse Fc capture approach or using a similar method as described above using the ProteoOn system.
A series S sensor chip SA was conditioned using the manufacturers recommended protocol and immobilised with 1 ug/ml hPAR4-biotinylated peptide on FC2 and hPAR1-biotinylated peptide as a control onto FC1. […] Blank injections of buffer alone were also performed. All injections were performed in duplicate and in a random order. After each capture/injection/dissociation cycle the chip was regenerated with a 30 second injection of 0.1M Glycine pH2.0.
For the mAb capture method low levels of ligand mAb and analyte hPAR4 were used in an attempt to produce a 1:1 binding interaction, this method has been used successfully to measure kinetics and affinity KD's (Kamat V and Rafique A (2017) Analytical Biochemistry 530:75-86), despite using a whole IgG.
as §4

human isolated platelets [3] = assay: Binding to human platelets by flow cytometry; details: 10 μg/ml, against isotype control
Experimental: Human or mouse washed platelets (5×10^7/mL) were incubated with anti-PAR4 antibody (0.1 mg/ml) for 30 mins at 37° C. and then fixed with paraformaldehyde 1% v/v final concentration). The suspension was then centrifuged at 1000×g for 2 min to obtain the platelet pellet, which was then resuspended in modified Tyrode's buffer (12 mM NaHCO3, 10 mM HEPES pH 7.4, 137 mM NaCl, 2.7 mM KCl, 5.5 mM D-glucose, 1 mM CaCl2) containing a 1:50 dilution of an FITC-conjugated […] IgG. After 30 mins at room temperature, the samples were centrifuged again, and the platelet pellet was resuspended in modified Tyrode's buffer an analysed by use of a flow cytometer (FACSCalibur, BD Biosciences).
Clone 5A.RC3 was tested for binding to isolated human platelets in vitro. Analysis of binding was determined using flow cytometry. Isolated platelets were incubated with either mouse IgG1 (isotype control) or 5A.RC3 and tested for binding to PAR4. CD41a which is a marker expressed on platelets was used as a positive control.
The binding of five anti-PAR4 monoclonal antibodies to human platelets was examined by flow cytometry.

human isolated platelets [4] = assay: Platelet phosphatidylserine exposure (annexin V binding); assay type: cell-based; details: pre-treatment 5 min; regardless of donor genotype
Experimental: Platelet surface phosphatidylserine (PS) exposure was determined by measuring annexin V binding. Human isolated platelets (5×10^7/ml) were pre-treated with 5A.RC3 (5 mins) at the concentrations indicated and were incubated with Alexa Fluor 488-conjugated annexin-V (1:100) prior to stimulation with thrombin. After stimulation, platelets were resuspended in modified Tyrode's buffer for flow cytometry analysis (FACSCalibur, BD Biosciences).
Pro-coagulant activity in isolated human platelets was examined by measuring phosphatidylserine (PS) exposure in response to stimulation with PAR4-AP or thrombin (1 U/ml) The percentage of annexin V positive cells was measured. The platelets were pre-incubated with 5A.RC3 for 5 mins. […] The 10 min (final data point) is shown for simplicity.

PAR4 = target: T4, PAR4 (Homo sapiens, UniProt Q96RI0); assay: Functional bioassays for PAR4 inhibitory function; assay type: cell-based
T4 construct: host or cells: HEK293 cells transfected with FLAG-PAR4 and/or isolated human platelets
T4 sequence (Q96RI0 18-385): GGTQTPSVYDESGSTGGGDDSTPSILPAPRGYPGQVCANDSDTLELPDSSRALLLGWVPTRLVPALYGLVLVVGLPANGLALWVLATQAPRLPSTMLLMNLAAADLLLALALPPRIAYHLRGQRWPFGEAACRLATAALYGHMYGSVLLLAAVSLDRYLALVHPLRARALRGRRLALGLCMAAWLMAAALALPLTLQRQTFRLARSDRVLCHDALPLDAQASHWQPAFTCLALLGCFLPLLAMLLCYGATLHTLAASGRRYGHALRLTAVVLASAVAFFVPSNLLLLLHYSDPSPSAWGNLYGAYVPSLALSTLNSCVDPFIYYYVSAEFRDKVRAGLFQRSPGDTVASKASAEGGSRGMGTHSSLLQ

T3 sequence (Q96RI0 with tags, fused parts or gaps limits assumed): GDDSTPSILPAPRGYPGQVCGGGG

B1: 5A.RC3: anti-PAR4 monoclonal antibody, IgG2a/K, VH SEQ ID NO:11 and VL SEQ ID NO:12 (antibody, V domains shown)
VH: QVQLVESGGGVVQPGRSLRLSCAASGFTLSNYGMHWVRQAPGKGLEWVSVIWYDGSNKHYADSVKGRFTISRDNSKNTLYLQMNSLRAEDTAVYYCARESIVEVLPPFDYWGQGTLVTVSS
VL: KIVLTQSPGTLSLSPGERVTLSCRASQRVRNNYLAWFQQKPGQAPRLFIYGASSRATGIPDRFSGSGSGTDFIFTISRLEPEDFAVYYCQQYGNSYTFGQGTKLEIK
modifications: VH of 5A.RC3; VL of 5A.RC3
B1 was tested. Which “Fold binding native vs KLH-linked PAR4 peptide” value (native PAR4 peptide) did it give?
The value was 19.3.

What about the “selectivity to human PAR4 peptide over PAR1, PAR2 and PAR3” value [1] of the same molecule?
Its value is 16 fold.

What about the “reactivity with hPAR4 peptide by ELISA” value (hPAR4 peptide) of the same molecule?
The value was “very similar binding curves”.

What about the ka [2] of the same molecule?
Its ka is 1.32e+06 M⁻¹ s⁻¹.

What about the kd [2] of the same molecule?
The kd was 0.000417 s⁻¹.

What about the “binding to PAR4 on isolated human platelets” value (human isolated platelets [3]) of the same molecule?
The value was “binds human PAR4 in isolated platelets”.

What about the “inhibition of thrombin-induced phosphatidylserine exposure” value (human isolated platelets [4]) of the same molecule?
The value was “dose-dependently inhibited thrombin-induced phosphatidylserine exposure; also recorded: inhibited thrombin-induced phosphatidylserine exposure in a dose dependent manner”.

What about the “PAR4 inhibitory (antagonist) function” value (PAR4) of the same molecule?
The value was “demonstrated PAR4 inhibitory function; also recorded: antagonist”.
